Where a chain is given by its changes, count along the chain named.
T1: HCoV-OC43 spike antigens (bead panel) (HCoV-OC43, UniProt P36334 14-1297)
T1 sequence: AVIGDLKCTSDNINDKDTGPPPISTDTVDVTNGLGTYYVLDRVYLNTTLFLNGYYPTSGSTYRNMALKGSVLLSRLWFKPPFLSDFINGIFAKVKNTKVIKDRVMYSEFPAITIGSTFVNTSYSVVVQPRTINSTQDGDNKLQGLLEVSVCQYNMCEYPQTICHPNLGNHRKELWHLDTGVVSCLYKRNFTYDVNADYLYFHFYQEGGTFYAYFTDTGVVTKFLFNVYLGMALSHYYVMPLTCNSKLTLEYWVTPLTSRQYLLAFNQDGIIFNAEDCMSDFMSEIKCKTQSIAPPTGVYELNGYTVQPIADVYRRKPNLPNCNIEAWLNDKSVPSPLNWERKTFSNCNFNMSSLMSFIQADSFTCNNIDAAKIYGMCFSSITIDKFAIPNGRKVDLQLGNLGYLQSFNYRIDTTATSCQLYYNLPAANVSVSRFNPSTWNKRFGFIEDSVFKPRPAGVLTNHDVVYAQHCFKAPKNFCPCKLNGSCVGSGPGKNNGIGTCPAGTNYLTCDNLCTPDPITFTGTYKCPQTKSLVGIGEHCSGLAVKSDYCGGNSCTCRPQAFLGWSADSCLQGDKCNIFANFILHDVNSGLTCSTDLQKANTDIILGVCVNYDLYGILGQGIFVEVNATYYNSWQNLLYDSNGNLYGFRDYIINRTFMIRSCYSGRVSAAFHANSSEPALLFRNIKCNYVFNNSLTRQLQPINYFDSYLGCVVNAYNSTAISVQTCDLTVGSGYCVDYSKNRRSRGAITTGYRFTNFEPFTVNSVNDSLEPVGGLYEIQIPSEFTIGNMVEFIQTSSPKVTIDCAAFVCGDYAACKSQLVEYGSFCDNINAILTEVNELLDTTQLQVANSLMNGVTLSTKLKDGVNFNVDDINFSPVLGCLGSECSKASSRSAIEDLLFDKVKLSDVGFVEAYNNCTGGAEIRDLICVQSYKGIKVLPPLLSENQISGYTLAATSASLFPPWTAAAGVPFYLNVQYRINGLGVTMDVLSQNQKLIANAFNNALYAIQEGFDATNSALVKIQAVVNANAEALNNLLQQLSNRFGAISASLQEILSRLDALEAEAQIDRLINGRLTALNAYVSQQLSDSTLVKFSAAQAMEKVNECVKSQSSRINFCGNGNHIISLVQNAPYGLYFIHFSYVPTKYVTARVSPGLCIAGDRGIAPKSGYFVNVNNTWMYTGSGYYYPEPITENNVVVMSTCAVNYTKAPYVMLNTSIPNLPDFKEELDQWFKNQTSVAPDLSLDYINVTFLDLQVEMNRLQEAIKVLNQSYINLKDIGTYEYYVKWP

T2: HCoV-229E spike antigens (bead panel) (HCoV-229E, UniProt P15423 16-1115)
T2 sequence: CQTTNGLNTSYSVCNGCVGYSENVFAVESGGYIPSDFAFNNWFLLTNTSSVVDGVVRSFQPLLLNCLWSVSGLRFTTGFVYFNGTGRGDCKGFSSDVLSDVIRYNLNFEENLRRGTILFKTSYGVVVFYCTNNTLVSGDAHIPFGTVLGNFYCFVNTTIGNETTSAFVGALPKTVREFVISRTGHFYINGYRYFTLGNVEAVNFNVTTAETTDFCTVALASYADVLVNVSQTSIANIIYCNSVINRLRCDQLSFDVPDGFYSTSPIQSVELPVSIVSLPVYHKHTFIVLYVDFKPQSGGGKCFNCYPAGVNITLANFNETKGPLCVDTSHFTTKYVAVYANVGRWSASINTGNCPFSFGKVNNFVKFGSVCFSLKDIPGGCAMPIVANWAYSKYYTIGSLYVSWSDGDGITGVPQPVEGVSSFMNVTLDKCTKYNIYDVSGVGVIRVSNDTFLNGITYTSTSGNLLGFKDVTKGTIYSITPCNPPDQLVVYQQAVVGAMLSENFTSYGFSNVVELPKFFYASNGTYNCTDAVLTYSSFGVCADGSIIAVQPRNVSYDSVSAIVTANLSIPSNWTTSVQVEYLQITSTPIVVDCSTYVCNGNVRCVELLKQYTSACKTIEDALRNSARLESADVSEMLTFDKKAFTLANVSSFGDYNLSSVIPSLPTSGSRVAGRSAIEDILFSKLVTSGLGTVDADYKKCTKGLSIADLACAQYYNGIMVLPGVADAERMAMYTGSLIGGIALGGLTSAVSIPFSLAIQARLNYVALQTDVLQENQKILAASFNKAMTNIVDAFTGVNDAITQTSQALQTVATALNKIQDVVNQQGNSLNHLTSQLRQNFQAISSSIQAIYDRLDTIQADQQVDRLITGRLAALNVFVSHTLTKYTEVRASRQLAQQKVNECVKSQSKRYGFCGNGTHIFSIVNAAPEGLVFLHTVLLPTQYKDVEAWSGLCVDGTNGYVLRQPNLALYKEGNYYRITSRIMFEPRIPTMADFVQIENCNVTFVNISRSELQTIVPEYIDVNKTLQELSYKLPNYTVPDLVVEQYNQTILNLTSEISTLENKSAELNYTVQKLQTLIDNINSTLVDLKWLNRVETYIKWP

B1: COV_2056 (SEQ ID NO:432/437) (antibody, V domains shown)
VH: EVQLVESGGGVVQPGRSLRLSCAASGFTFSIYGMHWVRQAPGKGLEWVALISYDGTNKYYADSVKGRFSISRDDSKNTLYLQMNSLRPEDTAVYYCAKVLMMGDSSGFSLGDAFDIWGQGTMVTVSS
VL: DIQMTQSPSSVSASVGDRVTITCRASQGISNWLAWYQQKPGKAPKLLIYAASSLQSGVPSRFSGSVSGTDFTLTISSLQPEDFATYYCQQANSFPLTFGGGTKVDIK
B2: COV_1060 (antibody, V domains shown)
VH: EVQLVQSGAEVKKPGESLKISCKSSGYTFTSFWIAWVRQLPGKGLEWMGIIYPGDSDTKYSPSFQGQVTISADKSISTAYLQWSSLKASDTAMYYCARLRGSCSNGVCYAYYYNAMDVWGPGTTVTVSS
VL: QSALTQPASVSGSPGQSITISCTGTSSDIGRYNYVSWYQHHPGKAPKLMIYEVSNRPSGVSNRFSGSKSGNTASLTISGLQAEDEADYYCTSYTSGSTLGFGGGTKVTVLG
B3: COV_1012 (antibody, V domains shown)
VH: QVQLQESGPGLVRPSGTLSLTCAVSGGSISSSNWWSWVRQPPGKGLEWIGEIYRSGSTNYNPSLKSRVTISVAQSKNQFSLNLTSVTAADTAVYYCAKIIVGAPSDAFDIWGQGTMVTVSS
VL: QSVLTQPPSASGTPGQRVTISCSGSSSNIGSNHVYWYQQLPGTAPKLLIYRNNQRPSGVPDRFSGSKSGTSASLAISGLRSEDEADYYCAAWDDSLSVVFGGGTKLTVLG
notes: human IgG1
B4: COV_2151 (antibody, V domains shown)
VH: QVQLQESGPRLVKPSETLSLTCTVSGGSISGSNYFWGWIRQPPGKGLEWIGTIYYGGSTYYNPSLKSRVTISVDTSENQFSLKLSSVTAADTAVYYCANLAWLRGYFDYWGQGTLVTVSS
VL: NFMLTQPHSVSESPGKTVTISCTRSSGSIASNYVQWYQQRPGSAPTTVIYEDNQRPSGVPDRFSGSIDSSSNSVSLTISGLKTEDEADYYCQSYDSSNWVFGGGTKLTVL
notes: human IgG1
B5: COV_3033 (antibody, V domains shown)
VH: EVQMVESGGGFVQPGQSPRLSCLVSGLNFADYAFCWVRQAPGKGPEWIGFISSKLHGGTTHYAASVEGRFIISRDDSKNVVYLQMDNLKAEDSAVYYCTRDSYGYFPEYGFGVWGQGTLVTVSS
VL: EVVLTQTPLSLSVTPGQPASISCRSSQSLVHSDGRTYLYWFLQKPGQPPQPLIYDISSRFSGVPYRFTGSGSGTYFTLRISRVEADDVGVYYCMHSIQLPRAFGQGTKVEIK
B6: COV_2024 (antibody, V domains shown)
VH: QVQLVQSGAEVRKPGSSVKVSCKASGGTFSTYAISWVRQAPGQGLEWMGGIIPMFGTTNYAQKFQGRVTITADESTRTAYMELSSLRSEDTAVYYCARDGGYDSWPDFDYWGQGTLVTVSS
VL: EIVLTQSPATLSLSPGERATLSCRASQSISSFLAWYQQKPGQAPRLLIYDASNRATGIPARFSGSGSGTDFTLTVSSLEPEDFAVYYCHQRRNWPPIKTFGQGTKVDIK
notes: human IgG1
B7: COV_3040 (antibody, V domains shown)
VH: QVQLVESGGGLVQPGRSLRLSCTTSGFNFGDNSMSWVRQAPGKGLEWIGFISNKAHGGTTDYAASVKGRFTISRDDSKSIAYLQMNSLKAEDTAIYYCTKDSYGHFPSYGFDIWGQGTMVTVSS
VL: DVVMTQTPLSLSVTPGQPASISCKSTQSLVHTDGKTYFYWFLQKPGQPPQLLIYDVSSRFSGVPDRFSGSGSATDFTLRISRVEAEDVGVYYCMHSINFPRTFGQGTKVEIT
B8: COV_3043 (antibody, V domains shown)
VH: EVQVVESGGGLVQPGRSLRLSCTASGFNFGDNSMSWVRQAPGKGLEWVGFISNRDHSGTTDYAASVKGRFTISRDDSKSIAYLQMNSLKTEDTAIYYCIRDSYGHFPNYGFDVWGQGTMVTVSS
VL: B7 VL with S25C, T26S, V30I, T32S, F38Q, K44R, S58N, F60V, A73G, R79K
B9: COV_1056 (antibody, V domains shown)
VH: QVQLVESGGGVVQPGTSLRLSCEASGFTFSAYGMHWVRQAPGKGLEWVAISRNDGTTKYYADSVKGRLTISRDNSKNTLYLQMNSLTSEDTAVYYCANQCGGGCSVDSWGQGTLVTVSS
VL: QAVVTQEASLTVSPGGTVTLTCGSSTGSVTSGHAPYWFQQKPGQAPRTLIFDTTHKHSWTPARFSGSLLGGKAALTLSGAQPEDEAEYYCLLSFGGAHVFGTGTKVTVLG

Key:
[1] = molecular target: SARS-CoV-2 S on pseudovirions (Wuhan Hu-1 / IL1/2020, last 18 amino acids removed) (SARS-CoV-2, UniProt P0DTC2 14-1273); test: cell-based or functional assay
[2] = molecular target: T1, HCoV-OC43 spike antigens (bead panel); test: multiplex bead assay
[3] = molecular target: T2, HCoV-229E spike antigens (bead panel); test: multiplex bead assay

Row | Binder | Mean IC50, pSV neutralization [1] | Mean IC80, pSV neutralization [1] | binding result [2] | binding result [3]
1 | B1 | 13.2 µg/ml | ≥ 25 µg/ml | no binding | 
2 | B2 | ≥ 25 µg/ml | ≥ 25 µg/ml |  | 
3 | B3 | ≥ 25 µg/ml | ≥ 25 µg/ml |  | no binding
4 | B4 | 0.12 µg/ml | 1.21 µg/ml | no binding | 
5 | B5 | ≥ 25 µg/ml | ≥ 25 µg/ml |  | 
6 | B6 | 9.59 µg/ml | ≥ 25 µg/ml | no binding | 
7 | B7 | ≥ 25 µg/ml | ≥ 25 µg/ml |  | 
8 | B8 | ≥ 25 µg/ml | ≥ 25 µg/ml |  | 
9 | B9 | ≥ 25 µg/ml | ≥ 25 µg/ml |  | 

From patent US20240101645A1 (HENRY M JACKSON FOUNDATION FOR THE ADVANCEMENT OF MILITARY …, published 2024)
